This is an account of results in patent publication US20260042834A1, “ANTI-CORTICOTROPIN-RELEASING HORMONE ANTIBODIES AND POLYCYSTIC OVARY SYNDROME” (HBM ALPHA THERAPEUTICS, INC., priority 2022, published 2026).

Residue numbers refer to the chain shown, from its start. Where only a bound is given, the exact number is not on record here.

One assay has as its system human CRHR2. Briefly: CRH-induced luciferase reporter blocking assay, CHO-CRE-hCRHR2 cells. Type of assay: cell-based. Here is the method: To create CHO-CRE-hCRHR1, -hCRHR2, -mCRHR1, and -mCRHR2 reporter cell lines, pcDNA3.1-hCRHR1, -hCRHR2, -mCRHR1, and -mCRHR2 were introduced into CHO-CRE cells established above by electroporation as described above. Selection antibiotics hygromycin at 500 μg/ml and G418 at 1,000 μg/ml were employed. Individual established stable cell lines were characterized by both CRH and forskolin stimulation.
Activated GPCR proteins increase production of the intracellular cAMP. CHO-CRE-human CRHR1 stable clone 11 was generated by introduction of pcDNA3.1-human CRHR1 under the selection of G418 and hygromycin. Human CRHR1 expression in CHO-CRE-hCRHR1 Clone 11 was confirmed by flow cytometry (data not shown). To further validate that the cell line was functional, CHO-CRE-hCRHR1 Clone 11 cells were treated with forskolin and CRH peptide. […] Subsequently CHO-CRE-hCRHR2 Clone 32, -mCRHR1 Clone 22, and -mCRHR2 Clone 8 cell lines were established using similar methodology and validated with CRH treatment (data not shown).
Blocking CRHR1 by small molecules or neutralization of CRH peptide can reduce luciferase expression if the CRH-CRHR1 system works in CHO-CRE-hCRHR1 cells. Antalarmin, a small molecule CRHR1 antagonist, blocked CRH-mediated luciferase expression in CHO-CRE-hCRHR1 Clone 11 (data not shown). Furthermore, sheep anti-CRH polyclonal antibody reduced CRH-mediated luciferase expression in these cells (data not shown). Likewise, sheep anti-CRH polyclonal antibody blocked CRH-mediated luciferase expression in CHO-CRE-hCRHR2, CHO-CRE-mCRHR1, and CHO-CRE-mCRHR2 cells (data not shown).
(§1) Cells were digested by trypsin-EDTA (Life technologies, Cat #:12604-013), centrifuged at 1,000 rpm for 5 min, resuspended in growth medium, counted using a cell counter, seeded at a concentration of 5,000 cells per 100 μl in 96-well flat plates, and incubated overnight. 50 μl of 4× serially diluted antibodies was added (8 points, 1/4 diluted by growth medium) to plates containing CHO-CRE-hCRHR1 cells, and 50 μl of 4×CRH (4× is 2 nM, final is 0.5 nM) was added. Similarly, 4×CRH (4× is 0.4 nM, final is 0.1 nM) was added to CHO-CRE-hCRHR2 cells and CHO-CRE-mCRHR1 cells, and 4×CRH (4× is 20 nM, final is 5 nM) was added to CHO-CRE-mCRHR2 cells. Next, plates were incubated 4-6 hours at 37° C. in a CO2 incubator. 60 μl of culture medium was removed, to which was added 60 μl of Bio-Glo luciferase, followed by incubation for 10 min at RT. Plates were read in a luciferase plate reader (EnVision, PerkinElmer).

The next assay relates to mouse CRHR2. Briefly: CRH-induced luciferase reporter blocking assay, CHO-CRE-mCRHR2 cells. Format: cell-based. Here is the method: To create CHO-CRE-hCRHR1, -hCRHR2, -mCRHR1, and -mCRHR2 reporter cell lines, pcDNA3.1-hCRHR1, -hCRHR2, -mCRHR1, and -mCRHR2 were introduced into CHO-CRE cells established above by electroporation as described above. Selection antibiotics hygromycin at 500 μg/ml and G418 at 1,000 μg/ml were employed. Individual established stable cell lines were characterized by both CRH and forskolin stimulation. […]
as §1

For another assay, the target named is T1, biotinylated CRH (Homo sapiens, UniProt P06850).
T1 construct: purchased GL Biochem 784751
T1 sequence (P06850 154-194): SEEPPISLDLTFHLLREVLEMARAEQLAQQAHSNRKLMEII
The assay is described as follows: Affinity determination with Octet. Format: binding. As for the experimental part:
Octet® Red 96e was used for affinity measurement. Octet® running buffer was prepared by diluting kinetics buffer 10× (Fortebio, Cat #18-1105) in PBS according to the manufacturer's instructions. Two columns of SA sensors (Fortebio, Cat #18-5019) were hydrated in running buffer for 10 mins, one for ligand capturing and the other for reference. Antibodies were 2-fold diluted and added into a 96-well plate. 30 nM biotinylated CRH (GL Biochem, Cat #784751) was captured by the first column of SA sensors for 20 seconds, while reference sensors were dipped into buffer wells. After a 60-second baseline step, sensors were dipped into analyte and buffer wells successively, with the association and dissociation time of 180 seconds and 800 seconds, respectively. Sensors were regenerated in glycine pH1.5 (Cytiva, Cat #BR-1003-54) before the next cycle. […] Signals of reference wells and reference sensors were subtracted by selecting “Double reference” before data fitting.

[1] abbreviates: CHO-CRE-hCRHR2 cells, 0.1 nM CRH.

B1: PR302334-8: humanized variant of Series 9 mAb PR302334; VH SEQ ID NO: 273, VL SEQ ID NO: 332 (antibody, V domains shown)
VH: EVQLVESGGGLVQPGGSLRLSCAASGFTFSTYAMSWVRQAPGKGLEWVASIRSGGTTYYPDSVKGRFTISRDNSKNTLYLQMNSLRAEDTAVYYCTRGIDWGQGTTVTVSS
VL: EIVMTQSPATLSVSPGERATLSCKASQSVNNDVAWYQQKPGQAPRLLIYYASNRYTGIPARFSGSGSGTEFTLTISSLQSEDLAVYFCQQDYSSWTFGGGTKVEIK
modifications: PR302334-10 VH, PR302334-11 VH, PR302334-12 VH, PR302334-14 VH,PR302334-7 VH, PR302334-8 VH, PR302334-9 VH; PR302334-22 VL, PR302334-2 VL, PR302334-8 VL
As to B1, the half-maximal inhibitory concentration (IC50) with human CRHR2 (setting [1]) was 2.32 nM; with mouse CRHR2 (CHO-CRE-mCRHR2 cells, 5 nM CRH), 2.74 nM. The “kdis” value with biotinylated CRH was <1e-07 s⁻¹. For the same molecule, the “kon” value in the assay with biotinylated CRH was 14700 M⁻¹ s⁻¹.

B2: PR302334-10: humanized variant of Series 9 mAb PR302334; VH SEQ ID NO: 273, VL SEQ ID NO: 328 (antibody, V domains shown)
VH: B1 VH
VL: DIVMTQSPDSLAVSLGERATINCKASQSVNNDVAWYQQKPGQPPRLLIYYASNRYTGVPDRFSGSGSGTDFTLTISSLQAEDLAVYFCQQDYSSWTFGGGTKVEIK
modifications: PR302334-10 VH, PR302334-11 VH, PR302334-12 VH, PR302334-14 VH,PR302334-7 VH, PR302334-8 VH, PR302334-9 VH; PR302334-10 VL, PR302334-24 VL, PR302334-26 VL, PR302334-4 VL
In the assay on human CRHR2 (setting [1]), B2 showed an IC50 of 2.08 nM. In the assay with mouse CRHR2 (CHO-CRE-mCRHR2 cells, 5 nM CRH), half-maximal inhibition (IC50) was put at 1.98 nM. In addition, in the assay with biotinylated CRH, the “kdis” value is <1e-07 s⁻¹ and the “kon” value was found to be 6840 M⁻¹ s⁻¹.

B3: PR302334-27: humanized variant of Series 9 mAb PR302334; VH SEQ ID NO: 277, VL SEQ ID NO: 330 (antibody, V domains shown)
VH: B1 VH with T77S
VL: DIQMTQSSLSASVSLGDRVTITCKASQSVNNDVAWYQQKPGKAPRLLIYYASNRYTGVPSRFSGSGSGTDFTFTISSLQPEDLATYFCQQDYSSWTFGGGTKVEIK
modifications: PR302334-18 VH, PR302334-26 VH, PR302334-27 VH; PR302334-12 VL, PR302334-25 VL, PR302334-27 VL, PR302334-6 VL
For the molecule B3, the 50% inhibitory concentration (IC50) was found to be 1.65 nM in the assay on human CRHR2 (setting [1]) and 1.84 nM with mouse CRHR2 (CHO-CRE-mCRHR2 cells, 5 nM CRH). For the same molecule, in the assay with biotinylated CRH, the “kdis” value was <1e-07 s⁻¹. The “kon” value with biotinylated CRH worked out at 302000 M⁻¹ s⁻¹.

B4: PR302334: Series 9 anti-CRH mAb from immunized wildtype mice; VH SEQ ID NO: 272, VL SEQ ID NO: 331 (antibody, V domains shown)
VH: EVKLVESGGGLVKPGGSLKLSCAASGFTFSTYAMSWVRQTPEKRLEWVASIRSGGTTYYPDSVKGRFTISRDNARNILYLQMSSLRSEDTAIYYCTRGIDWGQGTLVTVSA
VL: NIVMTQTPKFLLVSAGDRITITCKASQSVNNDVAWYQQKPGQSPKLLIYYASNRYTGVPDRFTGSGYGTDFTFTISTVQAEDLAVYFCQQDYSSWTFGGGTNLEIK
modifications: PR302334-1 VH, PR302334-2 VH, PR302334-3 VH, PR302334-4 VH,PR302334-5 VH, PR302334-6 VH, PR302334 VH; PR302334-14 VL, PR302334-15 VL, PR302334-16 VL, PR302334-17 VL,PR302334-18 VL, PR302334 VL
B4: the IC50 was found to be 0.803 nM with human CRHR2 (setting [1]) and 0.995 nM with mouse CRHR2 (CHO-CRE-mCRHR2 cells, 5 nM CRH). In addition, the “kdis” value in the assay with biotinylated CRH is <1e-07 s⁻¹. Besides, in the assay with biotinylated CRH, the “kon” value was found to be 669000 M⁻¹ s⁻¹.

B5: PR302341: Series 10 anti-CRH mAb from immunized wildtype mice; VH SEQ ID NO: 280, VL SEQ ID NO: 339 (antibody, V domains shown)
VH: EVQLQQSGPELVKPGASVKMSCKASGYTFTDYFMKWVKQSHGESLEWIGVINPNNGDIFYNQKFKGKATLTVDKSSSTAFMQLNSLTSEDSAVYSCARGTDRALFAYWGQGTLVAVSA
VL: DVLMTQTPLSLPVSLGDQASISCRSGQSIVHSDGNTYLEWYLQRPGQSPRLLIYKVSNRFSGVPDRFSGSGSGTDFTLKISRVGAEDLGIYYCFQGSHIPWTFGGGTKLEVK
modifications: PR302341-1 VH, PR302341-2 VH, PR302341-3 VH, PR302341-4 VH,PR302341-5 VH, PR302341-6 VH, PR302341 VH; PR302341-13 VL, PR302341-14 VL, PR302341-15 VL, PR302341-16 VL,PR302341-17 VL, PR302341-18 VL, PR302341 VL
In the case of B5, the concentration for half-maximal inhibition (IC50) in the assay with human CRHR2 (setting [1]) is 0.244 nM; in the assay with human CRHR2 (Table 9, hCRHR2), ~2.18 nM; in the assay with mouse CRHR2 (CHO-CRE-mCRHR2 cells, 5 nM CRH) it was 0.849 nM; in the assay on mouse CRHR2 (Table 9, mCrhr2) it was 2.41 nM. The “kdis” value with biotinylated CRH was 2.18e-07 s⁻¹. In addition, in the assay with biotinylated CRH, the “kon” value turned out to be 1.01e+06 M⁻¹ s⁻¹.
